Publication doi:10.1101/2020.09.14.294884 (bioRxiv, 2020)
Where no end group is shown, it is not given here.

Target: T1, recombinant Psb28 (from pIVEXPsb28His) (T. elongatus, UniProt Q8DLJ8 2-116)
T1 sequence: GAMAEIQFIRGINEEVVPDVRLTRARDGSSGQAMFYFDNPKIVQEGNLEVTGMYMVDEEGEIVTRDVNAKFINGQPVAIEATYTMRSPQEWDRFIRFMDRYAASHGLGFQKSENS
Assay: NMR titration

For Ac-SGIDPELSPEQVEWGFYQKV [carboxy-terminal peptide from residues 480-499 of CP47], the Kd was 53.92 ± 0.41 µM and the koff was 10.1 ± 0.16 s⁻¹.
